Source: patent publication US10253323B2, “Chloroplast transit peptides” (priority 2015, dated 2019)

Tests used:
soybean looper (SBL) = experiment: Insect bioassay of Cry2Aa Arabidopsis events, soybean looper; type: in vivo
Description: (§1) The effectiveness of the TraP11 chimeric chloroplast transit peptides on Cry2Aa protein expression in Arabidopsis thaliana was assessed. Transgenic Arabidopsis plants which contained TraP11 chimeric chloroplast transit peptides fused to the Cry2Aa protein were assayed for insect tolerance to soybean looper (SBL) and tobacco budworm (TBW).
(§2) A small aliquot of T2 seed (approx. 100-200 seeds) for each event were suspended in 40 mls of 0.1% agarose solution and cold stratified at 4° C. for 24 hrs. The stratified seeds were then sown by pipetting 10 ml of seed onto the surface of four flats in a propagation flat. The flats were filled with Sunshine #5 soil Media™ (Sun Gro; Bellevue, Wash.) and lightly covered with fine vermiculite. The trays were saturated in Hoagland's fertilizer prior to sowing and as needed afterward. After sowing, humidity domes were used to cover the trays and they were then placed into a Conviron™ growth chamber set at 24° C. with a 16 hr photo period. Incandescent and fluorescent lights provided a light level of 200 PAR. After 5 days the seeds germinated and the domes were removed. The first herbicide selection of transformants was on day 6 and the second on day 10. Liberty™ herbicide (a.i. glufosinate-ammonium) was applied using a DeVilbiss atomizer hand sprayer at a rate of 200 g ai/ha to remove nulls. Roughly 25% of the plants were nulls as expected. A row of wild type checks were also included in the selection and they had 100% mortality after two herbicide applications. At 14 days the plants were ready for transplanting. […] The flats were presoaked with Hoagland's fertilizer prior to transplant and afterward as needed. The transplants were propagated in a non-air conditioned green house set at 25° C. with 14 hours of supplemental light. Silique development was inhibited by trimming with scissors and thus created more plant tissue for testing. Plants were ready for DNA sampling at 16-18 days and ready for bio-assay at about 23 days. The putative transgenic plants were screened using molecular confirmation assays and identified events were advanced for protein analysis and bioassay results.
(§3) Both sets of T1 Arabidopsis events were tested in insect bioassay experiments. […] There was a correlation between protein expression and leaf protection against both SBL and TBW for Arabidopsis events expressing Cry2Aa without a TraP (r^2=0.49 [SBL], 0.23 [TBW]), and for Arabidopsis events expressing Cry2Aa with TraP11 (r^2=0.75 [SBL], 0.17 [TBW]). Resultantly, an increase in protein expression caused significant protection against leaf damage (Pr<0.05).

tobacco budworm (TBW) = experiment: Insect bioassay of Cry2Aa Arabidopsis events, tobacco budworm; type: in vivo
Description: as §1, §2, §3

B1: Cry2Aa without a TraP: Cry2Aa protein expressed in Arabidopsis from control plasmid without a chloroplast transit peptide sequence upstream of the cry2Aa gene (protein, UniProt P0A377 1-633, looked up)
Pesticidal crystal protein …: MNNVLNSGRTTICDAYNVVAHDPFSFEHKSLDTIQKEWMEWKRTDHSLYVAPVVGTVSSFLLKKVGSLIGKRILSELWGIIFPSGSTNLMQDILRETEQFLNQRLNTDTLARVNAELIGLQANIREFNQQVDNFLNPTQNPVPLSITSSVNTMQQLFLNRLPQFQIQGYQLLLLPLFAQAANMHLSFIRDVILNADEWGISAATLRTYRDYLRNYTRDYSNYCINTYQTAFRGLNTRLHDMLEFRTYMFLNVFEYVSIWSLFKYQSLMVSSGANLYASGSGPQQTQSFTAQNWPFLYSLFQVNSNYILSGISGTRLSITFPNIGGLPGSTTTHSLNSARVNYSGGVSSGLIGATNLNHNFNCSTVLPPLSTPFVRSWLDSGTDREGVATSTNWQTESFQTTLSLRCGAFSARGNSNYFPDYFIRNISGVPLVIRNEDLTRPLHYNQIRNIESPSGTPGGARAYLVSVHNRKNNIYAANENGTMIHLAPEDYTGFTISPIHATQVNNQTRTFISEKFGNQGDSLRFEQSNTTARYTLRGNGNSYNLYLRVSSIGNSTIRVTINGRVYTVSNVNTTTNNDGVNDNGARFSDINIGNIVASDNTNVTLDINVTLNSGTPFDLMNIMFVPTNLPPLY
In the case of B1, the “protection of Arabidopsis plants from SBL damage” value (soybean looper (SBL)) is reported as “protected from SBL damage”, the “minimum Cry2Aa protein expression for lower than 20% leaf damage” value (soybean looper (SBL); Arabidopsis events) is reported as 2.0-2.5 ng/cm^2 and the “minimum Cry2Aa protein expression for lower than 30% leaf damage” value (soybean looper (SBL); Arabidopsis events) is reported as “about 1.5 ng/cm^2”. The “protection of Arabidopsis plants from TBW damage” value (tobacco budworm (TBW)) was “protected from TBW damage”, the “Cry2Aa protein concentration resulting in less than 30% leaf damage” value (tobacco budworm (TBW); Arabidopsis events) was roughly 1.5 ng/cm^2 and the “Cry2Aa protein level at the 20% leaf damage cut-off point” value (tobacco budworm (TBW); Arabidopsis events) was 2.0-2.5 ng/cm^2.
